This is an account of results in publication PMC9832388.

Broadly, the Kd is the free concentration of one partner at which half of the binding sites on the other are occupied at equilibrium, for simple one-to-one binding.

Read-outs that look alike come from different tables or passages of the source.

Test [1] deals with C3b:FH complex (C3b with WT FH CCP 1-4) (UniProt P01024).
The target of test [2] is C3b (UniProt P01024). In words: SPR; BIAcore S200; C3b (800-1000 RU) on a CM5 chip; FH1-4 variants flowed at 20 to 0.3125 µM, 90 s at 30 µL/min; steady state fit, estimated KD; done once in HBST and once in PBST (PBST shown).
Test [3] addresses C3b:FH complex (C3b with WT FH CCP 1-4) (UniProt P01024). In words: SPR; TMC building, FI variants: FI variants on the inactive (S525A) backbone (125-15.625 nM; 62.5 nM shown) co-injected with FH1-4 at constant concentration (125 nM in the methods, 118 nM in the legend) onto thioester-coupled C3b (1000 RU); PBST + Mg2+. A general note: Surface plasmon resonance follows binding to a sensor surface in real time, without labels.

The target of test [4] is C3b (UniProt P01024). In words: SPR; BIAcore S200; C3b (800-1000 RU) on a CM5 chip; FH1-4 variants flowed at 20 to 0.3125 µM, 90 s at 30 µL/min; steady state fit, estimated KD; done once in HBST and once in PBST (PBST shown). This is another data set of the same source.
For test [5], the target named is C3b with FH CCP 1-4 R232Q (UniProt P01024). Put plainly: SPR; TMC building, FH variants: FH1-4 (118-14.75 nM) co-injected with 118 nM inactive (S525A) FI onto C3b (1000 RU, thiol/thioester coupled) CM5 chip; PBST + 1 mM MgCl2, 25°C, 2 min at 30 µl/min.
The target of test [6] is C3b with FH CCP 1-4 P26S (UniProt P01024). The description is as above.
The target of test [7] is C3b with FH CCP 1-4 R83S (UniProt P01024). The description is as above.
The target in test [8] is C3b with FH CCP 1-4 T91S (UniProt P01024). Described as above.
The target in test [9] is C3b:FH complex (C3b with WT FH CCP 1-4) (UniProt P01024). The description is as above.
Test [10] concerns the target C3b with FH CCP 1-4 R166W (UniProt P01024). Described as above.
For test [11], the target named is C3b:FH complex (C3b with WT FH CCP 1-4) (UniProt P01024). The source holds these as a separate data set.
Test [12] deals with C3b (UniProt P01024).

C3b, sequence (P01024 23-667, chain 1 of 2): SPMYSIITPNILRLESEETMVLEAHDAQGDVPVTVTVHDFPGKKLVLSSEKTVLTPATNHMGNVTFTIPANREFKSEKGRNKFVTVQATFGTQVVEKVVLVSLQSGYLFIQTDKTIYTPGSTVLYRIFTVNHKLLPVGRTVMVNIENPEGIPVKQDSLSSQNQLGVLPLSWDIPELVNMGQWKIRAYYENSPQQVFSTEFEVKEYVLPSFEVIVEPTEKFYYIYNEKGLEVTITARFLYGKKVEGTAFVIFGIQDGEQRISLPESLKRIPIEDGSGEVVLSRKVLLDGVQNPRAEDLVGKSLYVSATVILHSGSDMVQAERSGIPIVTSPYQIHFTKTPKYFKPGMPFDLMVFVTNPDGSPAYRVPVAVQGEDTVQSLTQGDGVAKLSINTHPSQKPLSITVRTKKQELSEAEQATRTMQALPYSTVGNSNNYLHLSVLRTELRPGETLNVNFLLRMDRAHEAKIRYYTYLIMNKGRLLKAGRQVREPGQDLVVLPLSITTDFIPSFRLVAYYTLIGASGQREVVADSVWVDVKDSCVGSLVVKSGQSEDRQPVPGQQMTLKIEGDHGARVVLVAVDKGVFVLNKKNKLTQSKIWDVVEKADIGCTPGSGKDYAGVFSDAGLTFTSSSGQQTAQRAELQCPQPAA
C3b, sequence (P01024 749-1663, chain 2 of 2): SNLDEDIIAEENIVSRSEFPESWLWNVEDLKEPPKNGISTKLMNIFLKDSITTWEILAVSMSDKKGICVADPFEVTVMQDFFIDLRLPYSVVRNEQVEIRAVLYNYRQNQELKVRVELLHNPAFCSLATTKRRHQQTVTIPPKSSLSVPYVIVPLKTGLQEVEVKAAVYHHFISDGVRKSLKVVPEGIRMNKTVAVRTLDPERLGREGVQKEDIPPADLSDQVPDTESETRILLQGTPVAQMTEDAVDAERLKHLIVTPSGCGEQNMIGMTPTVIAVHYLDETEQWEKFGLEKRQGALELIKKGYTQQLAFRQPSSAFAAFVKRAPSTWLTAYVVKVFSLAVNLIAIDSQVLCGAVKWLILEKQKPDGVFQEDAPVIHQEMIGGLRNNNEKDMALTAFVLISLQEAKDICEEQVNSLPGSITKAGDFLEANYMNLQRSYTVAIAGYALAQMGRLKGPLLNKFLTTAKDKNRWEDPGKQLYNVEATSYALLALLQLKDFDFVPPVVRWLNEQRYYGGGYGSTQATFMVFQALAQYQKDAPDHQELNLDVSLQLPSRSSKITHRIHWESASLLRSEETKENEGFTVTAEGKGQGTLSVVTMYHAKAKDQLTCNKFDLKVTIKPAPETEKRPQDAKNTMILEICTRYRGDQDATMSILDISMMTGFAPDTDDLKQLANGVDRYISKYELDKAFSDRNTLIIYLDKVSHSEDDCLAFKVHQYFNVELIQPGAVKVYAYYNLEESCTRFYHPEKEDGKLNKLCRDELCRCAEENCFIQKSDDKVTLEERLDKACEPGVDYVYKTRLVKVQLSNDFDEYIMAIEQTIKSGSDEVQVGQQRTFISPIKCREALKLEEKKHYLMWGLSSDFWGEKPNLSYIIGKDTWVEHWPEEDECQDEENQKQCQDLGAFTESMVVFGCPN
C3b:FH complex (C3b with WT FH CCP 1-4), sequence (P01024 23-667, chain 1 of 3): as the sequence (P01024 23-667, chain 1 of 2) above
C3b:FH complex (C3b with WT FH CCP 1-4), sequence (P01024 749-1663, chain 2 of 3): as the sequence (P01024 749-1663, chain 2 of 2) above
C3b:FH complex (C3b with WT FH CCP 1-4), sequence (P08603 19-1231, chain 3 of 3, further chain): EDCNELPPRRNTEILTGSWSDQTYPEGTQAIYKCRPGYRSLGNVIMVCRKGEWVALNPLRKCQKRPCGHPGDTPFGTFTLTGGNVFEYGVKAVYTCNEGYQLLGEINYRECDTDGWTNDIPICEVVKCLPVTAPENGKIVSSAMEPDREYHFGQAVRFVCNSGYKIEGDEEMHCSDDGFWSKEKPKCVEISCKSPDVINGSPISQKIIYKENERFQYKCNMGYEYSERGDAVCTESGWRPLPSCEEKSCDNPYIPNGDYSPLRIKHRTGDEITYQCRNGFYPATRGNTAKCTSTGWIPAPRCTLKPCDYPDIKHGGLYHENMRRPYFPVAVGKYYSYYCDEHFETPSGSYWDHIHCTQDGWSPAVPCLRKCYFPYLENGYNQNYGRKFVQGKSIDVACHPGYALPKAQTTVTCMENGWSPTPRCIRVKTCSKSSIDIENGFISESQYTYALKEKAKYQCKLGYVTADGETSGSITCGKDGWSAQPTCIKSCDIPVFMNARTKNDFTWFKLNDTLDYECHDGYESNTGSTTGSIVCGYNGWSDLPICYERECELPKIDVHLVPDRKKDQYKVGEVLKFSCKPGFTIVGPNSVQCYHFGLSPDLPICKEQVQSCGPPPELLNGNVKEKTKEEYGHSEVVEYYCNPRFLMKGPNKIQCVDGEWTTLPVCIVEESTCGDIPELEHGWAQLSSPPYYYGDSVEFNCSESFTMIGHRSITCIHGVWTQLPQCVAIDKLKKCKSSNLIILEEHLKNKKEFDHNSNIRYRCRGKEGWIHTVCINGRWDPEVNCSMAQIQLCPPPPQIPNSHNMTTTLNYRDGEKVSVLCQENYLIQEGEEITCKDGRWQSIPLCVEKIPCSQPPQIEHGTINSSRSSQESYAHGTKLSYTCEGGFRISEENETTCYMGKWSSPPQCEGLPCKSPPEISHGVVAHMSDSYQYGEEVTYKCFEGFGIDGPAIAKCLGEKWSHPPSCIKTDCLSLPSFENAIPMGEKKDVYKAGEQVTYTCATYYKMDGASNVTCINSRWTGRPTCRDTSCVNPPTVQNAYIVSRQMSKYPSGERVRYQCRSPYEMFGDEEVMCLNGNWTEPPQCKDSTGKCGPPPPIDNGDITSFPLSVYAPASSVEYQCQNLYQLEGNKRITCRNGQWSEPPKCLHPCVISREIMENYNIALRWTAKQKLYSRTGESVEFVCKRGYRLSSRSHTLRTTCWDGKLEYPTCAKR
C3b with FH CCP 1-4 R166W, sequence (P01024 23-667, chain 1 of 3): as the sequence (P01024 23-667, chain 1 of 2) above
C3b with FH CCP 1-4 R166W, sequence (P01024 749-1663, chain 2 of 3): as the sequence (P01024 749-1663, chain 2 of 2) above
C3b with FH CCP 1-4 R166W, sequence (P08603 19-1231 R166W, chain 3 of 3, further chain): as the sequence (P08603 19-1231, chain 3 of 3, further chain) above, with R148W counted along it
C3b with FH CCP 1-4 T91S, sequence (P01024 23-667, chain 1 of 3): as the sequence (P01024 23-667, chain 1 of 2) above
C3b with FH CCP 1-4 T91S, sequence (P01024 749-1663, chain 2 of 3): as the sequence (P01024 749-1663, chain 2 of 2) above
C3b with FH CCP 1-4 T91S, sequence (P08603 19-1231 T91S, chain 3 of 3, further chain): as the sequence (P08603 19-1231, chain 3 of 3, further chain) above, with T73S counted along it
C3b with FH CCP 1-4 P26S, sequence (P01024 23-667, chain 1 of 3): as the sequence (P01024 23-667, chain 1 of 2) above
C3b with FH CCP 1-4 P26S, sequence (P01024 749-1663, chain 2 of 3): as the sequence (P01024 749-1663, chain 2 of 2) above
C3b with FH CCP 1-4 P26S, sequence (P08603 19-1231 P26S, chain 3 of 3, further chain): as the sequence (P08603 19-1231, chain 3 of 3, further chain) above, with P8S counted along it
C3b with FH CCP 1-4 R83S, sequence (P01024 23-667, chain 1 of 3): as the sequence (P01024 23-667, chain 1 of 2) above
C3b with FH CCP 1-4 R83S, sequence (P01024 749-1663, chain 2 of 3): as the sequence (P01024 749-1663, chain 2 of 2) above
C3b with FH CCP 1-4 R83S, sequence (P08603 19-1231 R83S, chain 3 of 3, further chain): as the sequence (P08603 19-1231, chain 3 of 3, further chain) above, with R65S counted along it
C3b with FH CCP 1-4 R232Q, sequence (P01024 23-667, chain 1 of 3): as the sequence (P01024 23-667, chain 1 of 2) above
C3b with FH CCP 1-4 R232Q, sequence (P01024 749-1663, chain 2 of 3): as the sequence (P01024 749-1663, chain 2 of 2) above
C3b with FH CCP 1-4 R232Q, sequence (P08603 19-1231 R232Q, chain 3 of 3, further chain): as the sequence (P08603 19-1231, chain 3 of 3, further chain) above, with R214Q counted along it

“H380R FI (from UniProt P05156 19-335; P05156 340-583) (enzyme)” came in with an inhibition of the activity of WT FI in a fluid phase CA assay with increasing H380R FI (~20% at equimolar, 35% at 2-fold molar) in test [1] of 35%.
Regarding “FH CCP 1-4 T91S (from UniProt P08603 19-1231) (domain or fragment)”, in test [2], the Kd is 9.4 µM.
“FI R406H/S525A (from UniProt P05156 19-335; P05156 340-583) (enzyme)”: in [3], the RU of the TMC (62.5 nM FI variant with FH1-4) was 74.6 RU and the percent of the response of inactive WT FI worked out at 77%.
In the case of “FH CCP 1-4 R166W (from UniProt P08603 19-1231) (domain or fragment)”, the Kd in test [2] was 16.7 µM; in test [4], 16 to 20 µM.
Take “FI P553S/S525A (from UniProt P05156 19-335; P05156 340-583) (enzyme)”: in test [3], the RU of the TMC (62.5 nM FI variant with FH1-4) came out at 62.9 RU and the percent of the response of inactive WT FI was determined as 65%.
In the case of “inactive FI (S525A FI) (from UniProt P05156 19-335; P05156 340-583) (enzyme)”, the peak RU of the TMC (59 nM FH1-4 with 118 nM S525A FI) is 6 RU in test [5]; 29 RU in test [6]; 5 RU in [7]; 30 RU in test [8]; 40 RU in test [9]; 7 RU in test [10]. Also, in [9], the RU of the TMC (118 nM FH1-4 with 118 nM inactive FI) was 60 RU. Moreover, in test [11], the inhibition of C3b cleavage by WT FI in a fluid phase CA assay with increasing S525A FI (15% at equimolar, 20% at 2-fold molar) worked out at 20%.
For “FH CCP 1-4 WT (from UniProt P08603 19-1231) (domain or fragment)”, the Kd in test [2] is 10 µM.
On the same count and under the same terms, then “FH CCP 1-4 P26S (from UniProt P08603 19-1231) (domain or fragment)”, with 11.5 µM.
As for “FH CCP 1-4 R232Q (from UniProt P08603 19-1231) (domain or fragment)”, the fluid phase cofactor activity with FI and C3b: reduction in C3b α’ chain degradation (% reduced compared to WT) in test [12] was determined as 41.
As to “FI K441R/S525A (from UniProt P05156 19-335; P05156 340-583) (enzyme)”, in test [3], the RU of the TMC (62.5 nM FI variant with FH1-4) was 91.2 RU and the percent of the response of inactive WT FI came to 94%.
